According to patent US20110135636A1 (SYMPHOGEN A S, published 2011):

Assays:
[1] = target: T1, wild type full length EGFR purified from A431 cells (human, UniProt P00533 25-1210); test: competition ELISA, competitor Ab-2; set-up: concentration or dose not given beside the values
T1 construct: mature; Bought; coated on ELISA wells; also called full length EGFR receptor antigen; Sigma E3641
Description: (§1) The ELISA was adapted from the descriptions published in Ditzel et al, 1995, The Journal of Immunology, Vol 154, Issue 2 893-906.
(§2) An epitope blocking ELISA was performed by diluting full length EGFR receptor antigen to 0.5 μg/ml in PBS; and coating 50 μl/ELISA well overnight at 4° C. […] Finally wells were washed four times with PBS-T and plates were developed by adding 50 μl/well TMB and read at 620 nm every 5-15-30 min. The degree of inhibition was calculated from the formula: % inhibition=(1−(OD competition/OD no competition (PBS)))×100.

[2] = target: T2, recombinant human EGFR extracellular domain with 6xHis (human, UniProt P00533 25-645); test: SPR competition, competitor 1308
T2 construct: In-house produced; also called 6xHis EGFR ECD; soluble human EGFR ECD; not shown: 6xHis tag
Description: (§3) SPR analysis was performed on a Biacore 3000 machine containing four flow cells. A CM5 Biacore chip was conjugated with 10,000 Resonance units (Ru) polyclonal anti-His antibody to flow cells 1-4 according to the manufacturer's instructions. […] Immediately after antigen injection the maximal binding of the Anti-EGFR mAb without competition was established in each flow cell during a reference run. Briefly 5 μl antibody at a concentration of 40 μg/ml was injected over all flow cells with captured EGFR followed by stripping of the antibody/antigen complex with a low pH acid wash (10 sec. contact time with 10 mM Glycine-HCl, pH2). After the determination of Anti-EGFR antibody maximal binding to each flow cell, a competition run was performed during the same Biacore cycle. Flow cells were first saturated with EGFR ECD antigen followed by injection of different reference antibodies or Anti-EGFR antibodies into separate flow cells using the same antigen saturating conditions as outlined above. This step was immediately followed by a second injection of Anti-EGFR antibody over the flow cell saturated with EGFR antigen and competition antibody to minimize the dissociation of either antigen or blocking antibody. Then the antibody/antigen complexes were stripped off with a low pH acid wash (10 sec. contact time with 10 mM Glycine-HCl, pH 2) and the whole cycle beginning with the reference run was repeated with a new Anti-EGFR antibody. The degree of inhibition of tested Anti-EGFR antibodies were determined by comparing the Ru max value of the individual Anti-EGFR antibody before and after competition by introduction of report points recorded two seconds before and after injection of each sample.

[3] = target: T1, wild type full length EGFR purified …; test: competition ELISA, competitor Ab-11; set-up: concentration or dose not given beside the values
Description: as §1, §2

[4] = target: T1, wild type full length EGFR purified …; test: competition ELISA, competitor Ab-5; set-up: concentration or dose not given beside the values
Description: as §1, §2

[5] = target: T1, wild type full length EGFR purified …; test: competition ELISA, competitor Ab-3; set-up: concentration or dose not given beside the values
Description: as §1, §2

[6] = target: T1, wild type full length EGFR purified …; test: competition ELISA, competitor ICR10; set-up: concentration or dose not given beside the values
Description: as §1, §2

[7] = target: T2, recombinant human EGFR extracellular …; test: SPR competition, competitor 1042
Description: as §3

[8] = target: T1, wild type full length EGFR purified …; test: competition ELISA, competitor Ab-10; set-up: concentration or dose not given beside the values
Description: as §1, §2

[9] = target: T2, recombinant human EGFR extracellular …; test: SPR (BIAcore 2000); IgG captured on anti-human Fc, soluble monovalent EGFR ECD injected
Description: Kinetic analysis of the full length IgG antibodies of the invention was performed on a BIAcore 2000, employing an assay as described in (Canziani, Klakamp, et al. 2004, Anal. Biochem, 325:301-307) allowing measurement of monovalent affinities of whole IgG molecules against soluble antigen. […] The chip surface was regenerated in between cycles by stripping the captured antibody/antigen complexes with a 10 second injection of 100 mM H₃PO₄. […] The association rate constant (ka) and dissociation constant (kd) were evaluated globally from the generated sensograms with the BIA evaluation software 4.1 provided by the manufacturer.

[10] = target: T2, recombinant human EGFR extracellular …; test: SPR competition, competitor 1449
Description: as §3

[11] = target: T3, EGFRvIII (deletion mutant EGFR) (human, UniProt P00533 25-645, limits assumed); test: EGFRvIII ELISA (Example 1)
T3 construct: also called deltaEGFR; rhEGFRvIII

[12] = target: T4, Cynomolgus EGFR extracellular domain (Cynomolgus monkey (Macaca fascicularis), UniProt P55245 25-645 (rhesus entry)); test: ELISA on cynomolgus EGFR ECD (Example 10)
T4 construct: Cloned without signal peptide; also called Cynomolgus rEGFR ECD; Cynomolgus EGFR ECD
Description: To verify that tested Anti-EGFR antibodies bound equally well to both Human and Cynomolgus EGFR ECD and accordingly warranting toxicology studies in Cynomolgus monkeys, serial four fold dilutions of antibodies beginning from 1 μg/ml were tested by ELISA for binding to recombinant Human and Cynomolgus EGFR ECD proteins. […] ELISA wells were coated with 50 μl/well of full length EGFR at a concentration of 1 μg/ml in PBS overnight at 4° C. The next morning wells were washed twice with PBS-T and blocked for one hour with 100 μl PBS-T-1% BSA at room temperature, followed by wash twice in PBS-T. Next 50 μl of serially diluted Anti-EGFR antibodies and control antibodies were added to wells and incubated for one hour at room temperature. After antibody incubation wells were washed five times with PBS-T, followed by incubation with 50 μl/well Streptavidin-HRP secondary reagent diluted 1:3000 in blocking buffer and incubation at room temperature for 30 min. Finally wells were washed five times with PBS-T and plates were developed by adding 50 μL/well TMB substrate and incubated at room temperature. After incubation the reaction was stopped by addition of 1 M H₂SO₄; 100 μl/well and plates were read at OD 450 nm.

| Binder | % inhibition [1] | % inhibition [2] | % inhibition [3] | % inhibition [4] | % inhibition [5] | % inhibition [6] | % inhibition [7] | % inhibition [8] | t1/2 [9] | % inhibition [10] | binding result [11] | Kd [9] | koff [9] | kon [9] | binding result [12] |
| --- | --- | --- | --- | --- | --- | --- | --- | --- | --- | --- | --- | --- | --- | --- | --- |
| antibody 1208 (antibody, human IgG1, kappa, V domains shown, Chimeric IgG1 kappa; also called clone 1208) VH: EVQLVESGGGLVKPGGSLKLSCAASGFAFSSYDMSWVRQTPEKRLEWVAYIGSGDDNTHYPDSVKGRFTISRHNAKNTLYLQMSSLKSEDTAMYYCARQKYGNYGDTMDYWGQGTSVTVSS VL: DVVMTQTPLSLPVSLGDQASISCRSSQSLVHSNGNTYLHWYLQKPGQSPKLLIYKVSNRFSGVPDRFSGSGSGTDFTLKISRVEAEDLGVYFCSQSTHVPTFGGGTKLEIKR | 20% | 5% | -3% | 84% | -10% | -21% | 9% | 89% | – | – | – | – | – | – | – |
| antibody 992 (antibody, human IgG1, kappa, V domains shown, Chimeric mouse/human IgG1 kappa; the VL entry includes the human kappa constant region) VH: EVQLQQPGSELVRPGASVKLSCKASGYTFTSYWMHWVKQRPGQGLEWIGNIYPGSRSTNYDEKFKSKATLTVDTSSSTAYMQLSSLTSEDSAVYYCTRNGDYYVSSGDAMDYWGQGTSVTVSS VL: DIQMTQTTSSLSASLGDRVTISCRTSQDIGNYLNWYQQKPDGTVKLLIYYTSRLHSGVPSRFSGSGSGTDFSLTINNVEQEDVATYFCQHYNTVPPTFGGGTKLEIKR | 77% | -9% | -2% | -3% | -21% | -20% | 21% | -14% | 0.2 min | 98% | – | – | – | – | – |
| antibody 1347 (antibody, human IgG1, kappa, V domains shown, Chimeric IgG1 kappa) VH: QVQLKESGPGLVAPSQSLSITCTVSGFSLTGHGVNWVRQPPGKGLEWLGMIWGDGSTDYNSTLKSRLSISKDNSKSQVFLKMNSLQTDDTARYYCARGYGYLYYFDYWGQGTTLTVSS VL: ENVLTQSPAIMSASPGEKVTMTCRASSSVSSSYLHWYQQKSGASPKLWIYSTSNLASGVPARFSGSGSGTSYSLTVNSVETEDAATYYCHQYSGFPFTFGSGTKLELKR | – | 82% | – | – | – | – | – | – | 22.9 min | – | no binding | 21.4 nM | 0.0005 s⁻¹ | 24000 M⁻¹ s⁻¹ | binds |
| antibody 1030 (antibody, human IgG1, kappa, V domains shown, Chimeric IgG1 kappa) VH: EVQLVESGGGLVKPGGSLKLSCAASGFTFSSYALSWVRQTPERRLEWVASISGVGSTYFPDSVKGRFTMSRDNARNILYLQMSSLRSEDTAMYYCARGSDGYFYAMDYWGQGTSVTVSS VL: DIVLTQSPASLAVSLGQRATISCRASKSVSTSGYSFMHWYQLKPGQPPKLLIYLASNLESGVPARFSGSGSGTDFTLNIHPVEEEDAATYYCQHSREFPLTFGGGTKLEIKR | -1% | -12% | -20% | 92% | -35% | 12% | 11% | 92% | 31.1 min | 4% | – | 29.2 nM | 0.00037 s⁻¹ | 13000 M⁻¹ s⁻¹ | binds |
| antibody 1024 (antibody, human IgG1, kappa, V domains shown, Chimeric IgG1 kappa) VH: QVQLQQPGAELVEPGGSVKLSCKASGYTFTSHWMHWVKQRPGQGLEWIGEINPSSGRNNYNEKFKSKATLTVDKSSSTAYMQFSSLTSEDSAVYYCVRYYGYDEAMDYWGQGTSVTVSS VL: DIVMTQAAFSNPVTLGTSASISCRSSKSLLHSNGITYLYWYLQKPGQSPQLLIYQMSNLASGVPDRFSSSGSGTDFTLRISRVEAEDVGVYYCAQNLELPYTFGGGTKLEIKR | 75% | -3% | 18% | 12% | 11% | 11% | 71% | 27% | 2.4 min | 78% | – | 26.7 nM | 0.0049 s⁻¹ | 180000 M⁻¹ s⁻¹ | – |
| antibody 1344 (antibody, human IgG1, kappa, V domains shown, Chimeric IgG1 kappa) VH: QVQLKESGPGLVAPSQSLSITCTVSGFSLTIYGVHWVRQPPGKGLEWLGVIWAGGNTNYNSALMSRLSISKDNSKSQVFLKMNSLQTDDTAMYFCARGYGYNLDYWGQGTTLTVSS VL: DIQMTQTTSSLSASLGDRVTISCSASQGISNYLNWYQQKPDGTVKLLIYYTSSLHSGVPSRFSGSGSGTDYSLTISNLEPEDIATYYCQQYSKLPYTFGGGTKLEIKR | 14% | 73% | 82% | 28% | 40% | 82% | – | 36% | – | – | no binding | – | – | – | binds |
| antibody 1320 (antibody, human IgG1, kappa, V domains shown, Chimeric IgG1 kappa) VH: QVQLQQPGAELVKPGASMKLSCKASGYTFTNYWMHWVKQRPGQGLEWIGEINPSNGRTNYNEKFKSKATLTVDKSSSTAYMQLSSLTSEDSGVYYCAKGGNYYDYDWDYWGQGTTLTVSS VL: DIQMTQTTSSLSASLGDRVTISCSASQDISNYLNWYQQKPDGTVKLLIYHTSTLHSGVPSRFSGSGSGTDYSLTISNLEPEDIATYYCQQYSKLPWTFGGGTKLEIKR | -9% | -2% | 8% | 6% | 0% | 2% | 48% | 7% | 4.1 min | 50% | – | 24.2 nM | 0.0028 s⁻¹ | 120000 M⁻¹ s⁻¹ | no binding |
